Measured values as given in publication PMC6378725 (BMC Biotechnology, 2019).

Columns and labels:
[1] = target: T1, HLA-A*02:01 on a single antigen bead (Homo sapiens, HLA-A*02:01, strain); experiment: single antigen flow bead assay (Luminex); LabScreen single-antigen LS1A04 beads with 97 MHC class I alleles, Luminex 100 analyser; positivity threshold MFI 1000; conditions: both partners purified
T1 construct: beta-2-microglobulin; source: bought: One Lambda (LabScreen single-antigen LS1A04); copies: + +

[2] = target: T2, HLA-A2 on stably transfected B721.221 cells (Homo sapiens, HLA-A*02:01, strain); experiment: flow cytometry on cells; 150,000 BLCL cells with various concentrations of purified mAbs in PBS 0.5% BSA, 30 min at room temperature; PE goat anti-human IgG; conditions: one partner purified
T2 construct: beta-2-microglobulin of the cells; also called 721.221(A2); B721.221 A2; source: B721.221 cells, stably transfected, on the cell surface; copies: + +

[3] = target: T3, HLA-A*02:01 on BLCL HEN cells (Homo sapiens, HLA-A*02:01, strain); experiment: as above; conditions: one partner purified
T3 construct: HLA-A*02:01 naturally expressed on BLCL HEN; beta-2-microglobulin of the cells; also called BLCL HEN expressing HLA-A2; source: endogenous, on BLCL HEN cells (HLA-A*02:01/ HLA-A*0101); copies: + +

Measured: binding result

B1: C4.4 (antibody, V domains shown)
VH: EVQLVESGAEVKKPGESLKISCKASGYRFTNYWIGWVRQMPGKGLEWMGIIYPYHSDTQYTPSFQGQVTISADESTTTAYLHLSSLKASDTAIYYCVRLRGDFVPVVFAPYFDSWGQGTLVT
VL: QSALTQPRSVSGSPGQSVTISCTGSRSDAHTFNYVSWYQQHPGKAPKLMICDVNQRPSGVPDRFSGSKSGDAASLTISGLQAEDEADYYCFSYDANYTLGVFGTGTKVTVL
notes: numbers count on: the heavy chain from the first amino acid of its leader peptide; human heavy chain constant domains of the IgG-AbVec expression vector; human lambda light chain constant domain of the Iglambda-AbVec expression vector; Only the heavy chain was mutated; also called cluster D74H//S80 T//W102 L//M112I//G121D//R124P
binds: [1] | [2] | [3]

B2: C4.18 (antibody, V domains shown)
VH: EVQLVESGAEVKKPGESLKISCKASGYRFTNYWIGWVRQMPGKGLEWMGIIYPYHSDTQYSPSFQGQVTISADESTTTAYLHLSSLKASDTAIYYCVRLRGDFVPVVFAPYFDSWGQGTLVT
VL: QSALTQPRSVSGSPGQSVTISCTGSRSDAHTFNYVSWYQQHPGKAPKLMICDVNQRPSGVPDRFSGSKSGDAASLTISGLQAEDEADYYCFSYDANYTLGVFGTGTKVTVL
notes: numbers count on: the heavy chain from the first amino acid of its leader peptide; human heavy chain constant domains of the IgG-AbVec expression vector; human lambda light chain constant domain of the Iglambda-AbVec expression vector; Only the heavy chain was mutated; also called cluster D74H//W102 L//M112I//G121D//R124P
binds: [1] | [2] | [3]
